Data: the Human Domainome abundance scans (Beltran et al. 2025)

B1: Ankyrin-1, residues 1405 to 1484; numbered along this chain, P16157 (parent)
chain: MKMAVISEHLGLSWAELARELQFSVEDINRIRVENPNSLLEQSVALLNLWVIREGQNANMENLYTALQSIDRGEIVNMLE

Variants of: B1
Experiment: abundance fitness (aPCA) (normalised: wild type 0, dead -1); higher = more abundant; growth selection in yeast, the domain comes from the species named
Settings: Homo sapiens

Abundance fitness: each site, then its substitutions
S24: Q -0.195 | M -0.487 | F -0.837 | T -0.191 | C -0.39 | P -0.209 | Y -0.856 | E -0.067 | L -0.776 | V -0.722 | A -0.213 | K -0.147 | R -0.25 | H -0.429 | G -0.23 | W -0.925
W14: R -1.08 | E -0.788 | S -0.89 | N -0.865 | H -0.873 | K -0.545 | V -0.67 | P -0.785 | G -0.895 | C -1.05 | L -0.538 | D -0.907 | A -0.799 | T -0.758 | M -0.454
A15: H -0.206 | Q -0.171 | E 0.04 | D -0.209 | W -0.288 | F -0.039 | P -0.025 | G -0.108 | V 0.066 | S 0.037 | C -0.238 | I 0.132 | L 0.076 | T 0 | K -0.251 | Y 0.128
S7: W -0.691 | I -0.396 | D -0.821 | L -0.808 | T -0.226 | R -0.504 | A 0.109 | F -0.126 | C -0.089 | K -0.786 | Q -0.389 | H -0.877 | E -0.261 | G -0.176 | Y -0.242 | M -0.852
R19: Y -0.434 | I -0.489 | T -0.092 | N -0.32 | Q -0.052 | M 0.003 | D -0.296 | A -0.047 | F 0.067 | C -0.17 | H 0.064 | G -0.229 | K -0.048 | S -0.123 | L 0.025 | V -0.072 | W -0.268
Q22: A -0.066 | V -0.494 | K 0.011 | G -0.08 | M -0.008 | P -0.522 | N -0.077 | E -0.043 | H -0.413 | C 0.016 | W -0.506 | D -0.218 | R -0.093 | Y -0.187 | I -0.276 | L -0.126 | F -0.092 | S 0.018 | T -0.044
V5: H -0.216 | M -0.092 | I -0.337 | R -0.521 | E -0.372 | K -0.279 | G -0.592 | T -0.266 | C -0.18 | L 0.079 | S -0.361 | F 0.103 | Y 0.086 | D -0.605 | N -0.606 | Q -0.483 | A -0.231
L21: I -0.425 | C -0.727 | F -0.69 | A -1.02 | R -0.923 | S -0.645 | W -0.666 | G -0.965 | M 0.048
E16: G 0.018 | C -0.271 | R -0.085 | M -0.207 | F -0.23 | D 0.068 | I -0.384 | H -0.104 | L -0.162 | W -0.593 | P -0.091 | K -0.088 | N 0.161 | A -0.041 | T -0.222 | Q -0.081 | V -0.037
G11: P -0.997 | R -0.41 | M -0.447 | N -0.161 | T -0.371 | Q -0.276 | E 0.195 | D -0.171 | W -0.893 | Y -0.481 | A -0.47 | I -0.726 | K -0.362 | S -0.616 | L -0.447 | C -0.737 | F -0.581 | H 0.028
I6: V 0.224
H9: Y -0.388 | S -0.868 | R -0.33 | A -0.429 | P -0.666 | T -0.285 | N -0.019 | E -0.148 | L -0.438 | W -0.251 | C 0.011 | D -0.826 | M -0.302 | V -0.712 | F -0.249
E8: G -0.273 | T -0.162 | Q 0.067 | D -0.3 | K 0.075 | F -0.424 | I -0.559 | R -0.054 | M -0.426 | A -0.175 | L -0.383 | Y -0.722 | S -0.18 | H -0.398 | V -0.518 | P -0.24 | N -0.06 | C -0.624
L10: F -0.706 | R -0.895 | G -0.971 | A -0.884 | W -0.872 | I -0.172 | S -0.852 | E -1.11 | M -0.805 | Q -0.898 | N -0.69 | K -0.509
L12: F -0.069 | E -0.499 | T 0.063 | Q -0.233 | S 0.243 | D -0.124 | W -0.431 | K -0.133 | A 0.213 | G 0.104 | R -0.038 | C 0.3 | N 0.139 | I 0.153 | V 0.029 | H 0.274
F23: N -1.02 | M -0.693 | Y -0.478 | K -0.786 | E -0.911 | P -0.918 | I 0 | V -0.144 | W -0.964 | H -0.829 | L -0.443 | R -0.833 | C -0.51 | T -0.908 | Q -0.883
S13: L -0.417 | F -0.333 | Y -0.504 | W -0.494 | C -0.577 | G -0.237 | T -0.472 | I -0.815 | R -0.442 | N -0.404 | P -0.863 | A -0.021 | V -0.5 | M -0.441 | D 0.155
A4: E -0.142 | S -0.259 | M -0.434 | T -0.029 | R -0.071 | G 0.084 | Q -0.041 | V -0.35 | K 0.148 | D 0.159 | F -0.206 | P -0.612 | W -0.397 | H -0.622 | N -0.035
E20: R -0.127 | V -0.175 | P -0.996 | N -0.087 | G -0.49 | Q 0.069 | A -0.136 | Y -0.286 | H -0.12 | S -0.145 | C -0.125 | D -0.508 | F -0.345 | I -0.135 | M -0.077 | L -0.411
L17: M -0.25 | G -0.972 | W -0.636 | D -1.01 | S -0.853 | Y -0.462 | F 0.009 | E -0.204 | P -0.881 | N -0.776 | A -0.607 | R -1.03 | C -0.81 | H -0.671
V25: A 0.028 | L -0.073 | G -0.119 | D -0.05 | C -0.161 | K -0.005 | E 0.078 | I -0.143 | H 0.159
A18: R -0.681 | D -0.96 | P -0.912 | G -0.075 | E -0.39 | L -0.535 | C -1.05 | T -0.89 | Q -0.936 | V -1.07 | W -0.9 | N -0.627 | M -0.827 | I -0.77 | F -0.872
M3: K -0.155 | H -0.233 | S -0.365 | V -0.024 | P -0.474 | G -0.533 | Q -0.197 | I 0.127 | F 0.105 | L 0.208 | R -0.045 | N -0.748 | Y -0.708
